The assay deals with E. coli. Put plainly: Growth of E. coli with or without SULT1A1 in M9 with wheat straw biomass hydrolysate (Example 7, FIG. 9). Type of assay: cell-based, Escherichia coli. Particulars: 1 mM IPTG. The text has this: Here, we examine pre-treated wheat straw biomass hydrolysate in growth medium for a biotechnological relevant organism, exemplified by E. coli. Specifically, we used strains carrying plasmids expressing SULT1A1 from rat (Rattus norvegicus) and SULT1E1 from chicken (Gallus gallus domesticus) (Example 1) cloned into the expression vector pETDuet-1, and cysDNCQ from E. coli cloned into expression vector pRSFDuet-1 (Example 2) as described previously.
Cells expressing no sulfotransferase or SULT1A1 from rat were grown in M9 media with 1 mM IPTG with or without inhibitors of growth. Biomass hydrolysate was prepared by mixing 100 g biomass hydrolysate with 200 g of water for 2 h at 37° C., followed by centrifugation and filtration through a 0.2 μL-filter.

B1: SULT1A1 Rattus norvegicus: aryl sulfotransferase SULT1A1 from Rattus norvegicus (SEQ ID NO: 1), native gene, heterologously expressed (protein, listed as Rattus norvegicus)
chain: MEFSRPPLVHVKGIPLIKYFAETIGPLQNFTAWPDDLLISTYPKSGTTWMSEILDMIYQGGKLEKCGRAPIYARVPFLEFKCPGVPSGLETLEETPAPRLLKTHLPLSLLPQSLLDQKVKVIYIARNAKDVVVSYYNFYNMAKLHPDPGTWDSFLENFMDGEVSYGSWYQHVKEWWELRHTHPVLYLFYEDIKENPKREIKKILEFLGRSLPEETVDSIVHHTSFKKMKENCMTNYTTIPTEIMDHNVSPFMRKGTTGDWKNTFTVAQNERFDAHYAKTMTDCDFKFRCEL
Regarding B1, the “growth rate versus strain without sulfotransferase” value runs as follows: (M9 with 8% or 12% biomass hydrolysate) “significantly higher”; (M9 without supplements) “no difference in growth rate”.

The values above are taken from patent publication US10590440B2, “Process for producing a fermentation product from a lignocellulose-containing material” (CysBio ApS, priority 2014, dated 2020).
